The source of these data is patent publication US20260217835.

Common to all, as to assay: SEC area ratio of heteromultimer after coexpression of full-length heavy chain, light chain and Fc fragment in Expi293F
Data set [1] has as its target T1, IgG1 Fc fragment with CH3 modification K392D/D399K/K409D (SEQ ID NO: 72).
T1 chain: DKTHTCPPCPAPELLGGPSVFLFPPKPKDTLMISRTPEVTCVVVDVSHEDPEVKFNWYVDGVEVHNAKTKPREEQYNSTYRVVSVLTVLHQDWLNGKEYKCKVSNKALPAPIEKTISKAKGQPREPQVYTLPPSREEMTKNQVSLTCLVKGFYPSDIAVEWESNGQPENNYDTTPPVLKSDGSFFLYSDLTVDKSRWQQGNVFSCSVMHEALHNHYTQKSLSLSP

For data set [2], the target named is T2, IgG1 Fc fragment with CH3 modification E356K/K392D/D399K/K409D (SEQ ID NO: 75).
T2 chain: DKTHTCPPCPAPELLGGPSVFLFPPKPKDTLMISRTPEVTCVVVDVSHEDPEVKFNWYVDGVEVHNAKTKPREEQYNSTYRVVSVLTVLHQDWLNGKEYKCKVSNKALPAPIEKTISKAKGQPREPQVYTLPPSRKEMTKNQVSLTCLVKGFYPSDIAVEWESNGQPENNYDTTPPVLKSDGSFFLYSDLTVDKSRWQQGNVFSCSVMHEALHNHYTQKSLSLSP

Data set [3] deals with T3, IgG1 Fc fragment with CH3 modification T350V/L351Y/T366L/K392L/T394W/F405A/Y407V (SEQ ID NO: 77).
T3 chain: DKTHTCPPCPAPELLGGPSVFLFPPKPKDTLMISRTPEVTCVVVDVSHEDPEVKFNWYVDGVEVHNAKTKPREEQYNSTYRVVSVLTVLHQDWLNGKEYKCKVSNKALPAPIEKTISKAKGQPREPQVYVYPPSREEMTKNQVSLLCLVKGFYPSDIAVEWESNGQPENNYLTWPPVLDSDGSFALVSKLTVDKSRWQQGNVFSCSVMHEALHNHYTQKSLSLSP

Data set [4] has as its target IgG1 Fc fragment with CH3 modification T394W/F405A (SEQ ID NO: 64).
Data set [5] has as its target T4, IgG1 Fc fragment with CH3 modification E345R/Q347R/K360D/T366V/D399M/Y407A/K409V (SEQ ID NO: 74).
T4 chain: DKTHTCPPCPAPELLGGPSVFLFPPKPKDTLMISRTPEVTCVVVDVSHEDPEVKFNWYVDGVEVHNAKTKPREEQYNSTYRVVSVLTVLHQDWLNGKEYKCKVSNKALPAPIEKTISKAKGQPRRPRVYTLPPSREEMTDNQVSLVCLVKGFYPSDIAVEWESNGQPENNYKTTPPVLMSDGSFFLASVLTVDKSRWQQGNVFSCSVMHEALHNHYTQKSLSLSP

For data set [6], the target named is IgG1 Fc fragment, WT (no CH3 modification), SEQ ID NO: 63 in Table 5.
Data set [7] has as its target T5, IgG1 Fc fragment with CH3 modification E345R/K360E/D399M/Y407A/K409V (SEQ ID NO: 76).
T5 chain: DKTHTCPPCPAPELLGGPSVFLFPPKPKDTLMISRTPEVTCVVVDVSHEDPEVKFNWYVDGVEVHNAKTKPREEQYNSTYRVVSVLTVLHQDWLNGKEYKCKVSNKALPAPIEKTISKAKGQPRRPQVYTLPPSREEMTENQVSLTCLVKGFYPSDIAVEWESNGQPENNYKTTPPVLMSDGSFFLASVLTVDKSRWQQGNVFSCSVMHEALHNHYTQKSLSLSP

Data set [8] has as its target T6, IgG1 Fc fragment with CH3 modification T366W/L368A/Y407V (SEQ ID NO: 65).
T6 chain: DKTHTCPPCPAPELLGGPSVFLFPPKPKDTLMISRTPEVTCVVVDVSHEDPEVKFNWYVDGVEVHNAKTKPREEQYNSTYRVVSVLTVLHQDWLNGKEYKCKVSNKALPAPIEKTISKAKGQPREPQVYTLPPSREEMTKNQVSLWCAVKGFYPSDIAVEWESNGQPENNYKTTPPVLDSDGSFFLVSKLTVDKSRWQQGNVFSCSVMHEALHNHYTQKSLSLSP

In data set [9] the target is T7, IgG1 Fc fragment with CH3 modification E356K/D399K/K409E/K439E (SEQ ID NO: 68).
T7 chain: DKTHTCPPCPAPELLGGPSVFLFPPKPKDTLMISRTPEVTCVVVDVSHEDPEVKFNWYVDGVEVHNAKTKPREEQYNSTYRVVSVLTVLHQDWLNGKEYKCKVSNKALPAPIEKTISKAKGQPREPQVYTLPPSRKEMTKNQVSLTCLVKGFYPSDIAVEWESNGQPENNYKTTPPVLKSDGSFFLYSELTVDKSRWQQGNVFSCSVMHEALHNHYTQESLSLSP

In data set [10] the target is T8, IgG1 Fc fragment with CH3 modification K392L/T394W/F405A/Y407V (SEQ ID NO: 70).
T8 chain: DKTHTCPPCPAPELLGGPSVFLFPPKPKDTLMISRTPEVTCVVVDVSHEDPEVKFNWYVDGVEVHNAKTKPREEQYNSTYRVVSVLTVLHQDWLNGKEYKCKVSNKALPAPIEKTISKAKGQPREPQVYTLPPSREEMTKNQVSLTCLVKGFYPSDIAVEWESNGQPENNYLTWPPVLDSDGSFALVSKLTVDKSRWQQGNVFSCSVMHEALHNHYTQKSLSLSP

Data set [11] concerns the target IgG1 Fc fragment with CH3 modification T394F/F405A (SEQ ID NO: 67).

B1: full-length IgG heavy chain with CH3 modification Y349C/E357C/K392D/D399K (SEQ ID NO: 51), coexpressed with light chain SEQ ID NO: 61 (protein)
chain 1: QVQLQESGPGLVRPSQTLSLTCTVSGYSITSDHAWSWVRQPPGRGLEWIGYISYSGITTYNPSLKSRVTMLRDTSKNQFSLRLSSVTAADTAVYYCARSLARTTAMDYWGQGSLVTVSSASTKGPSVFPLAPSSKSTSGGTAALGCLVKDYFPEPVTVSWNSGALTSGVHTFPAVLQSSGLYSLSSVVTVPSSSLGTQTYICNVNHKPSNTKVDKRVEPKSCDKTHTCPPCPAPELLGGPSVFLFPPKPKDTLMISRTPEVTCVVVDVSHEDPEVKFNWYVDGVEVHNAKTKPREEQYNSTYRVVSVLTVLHQDWLNGKEYKCKVSNKALPAPIEKTISKAKGQPREPQVCTLPPSRECMTKNQVSLTCLVKGFYPSDIAVEWESNGQPENNYDTTPPVLKSDGSFFLYSKLTVDKSRWQQGNVFSCSVMHEALHNHYTQKSLSLSP
chain 2: not shown
On to B1, for which the heterodimer formation ratio (%) in [1] came to 9%; in data set [2] it was 0%; in data set [3], 0%; in data set [4], 0%; in data set [5], 2%; in [6] it was 0%. Moreover, the heterodimer formation ratio (%) in [7], in data set [8], in [9], in data set [10] and in data set [11] was 0% each time.

B2: full-length IgG heavy chain with CH3 modification E345R/Q347R/K360D/T366V/D399M/Y407A/K409V (SEQ ID NO: 55), coexpressed with light chain SEQ ID NO: 61 (protein)
chain 1: QVQLQESGPGLVRPSQTLSLTCTVSGYSITSDHAWSWVRQPPGRGLEWIGYISYSGITTYNPSLKSRVTMLRDTSKNQFSLRLSSVTAADTAVYYCARSLARTTAMDYWGQGSLVTVSSASTKGPSVFPLAPSSKSTSGGTAALGCLVKDYFPEPVTVSWNSGALTSGVHTFPAVLQSSGLYSLSSVVTVPSSSLGTQTYICNVNHKPSNTKVDKRVEPKSCDKTHTCPPCPAPELLGGPSVFLFPPKPKDTLMISRTPEVTCVVVDVSHEDPEVKFNWYVDGVEVHNAKTKPREEQYNSTYRVVSVLTVLHQDWLNGKEYKCKVSNKALPAPIEKTISKAKGQPRRPRVYTLPPSREEMTDNQVSLVCLVKGFYPSDIAVEWESNGQPENNYKTTPPVLMSDGSFFLASVLTVDKSRWQQGNVFSCSVMHEALHNHYTQKSLSLSP
chain 2: not shown
Regarding B2, the heterodimer formation ratio (%) turned out to be 0% in [1]; 0% in [2]; 0% in [3]; 0% in data set [4]; 52% in data set [5]; 0% in [6]. The heterodimer formation ratio (%) in data set [7] worked out at 49%; in data set [8] it was 0%; in data set [9], 0%; in data set [10], 0%; in [11], 0%.

B3: full-length IgG heavy chain with CH3 modification E345R/K360E/D399M/Y407A/K409V (SEQ ID NO: 58), coexpressed with light chain SEQ ID NO: 61 (protein)
chain 1: QVQLQESGPGLVRPSQTLSLTCTVSGYSITSDHAWSWVRQPPGRGLEWIGYISYSGITTYNPSLKSRVTMLRDTSKNQFSLRLSSVTAADTAVYYCARSLARTTAMDYWGQGSLVTVSSASTKGPSVFPLAPSSKSTSGGTAALGCLVKDYFPEPVTVSWNSGALTSGVHTFPAVLQSSGLYSLSSVVTVPSSSLGTQTYICNVNHKPSNTKVDKRVEPKSCDKTHTCPPCPAPELLGGPSVFLFPPKPKDTLMISRTPEVTCVVVDVSHEDPEVKFNWYVDGVEVHNAKTKPREEQYNSTYRVVSVLTVLHQDWLNGKEYKCKVSNKALPAPIEKTISKAKGQPRRPQVYTLPPSREEMTENQVSLTCLVKGFYPSDIAVEWESNGQPENNYKTTPPVLMSDGSFFLASVLTVDKSRWQQGNVFSCSVMHEALHNHYTQKSLSLSP
chain 2: not shown
As for B3, the heterodimer formation ratio (%) stood at 3% in [1]; 0% in data set [2]; 0% in data set [3]; 0% in [4]; 51% in [5]; 0% in data set [6]. The heterodimer formation ratio (%) in data set [7] came to 51%; in data set [8], 0%; in data set [9], 0%; in data set [10], 0%; in data set [11], 0%.

B4: full-length IgG heavy chain with CH3 modification E356K/K392D/D399K/K409D (SEQ ID NO: 56), coexpressed with light chain SEQ ID NO: 61 (protein)
chain 1: QVQLQESGPGLVRPSQTLSLTCTVSGYSITSDHAWSWVRQPPGRGLEWIGYISYSGITTYNPSLKSRVTMLRDTSKNQFSLRLSSVTAADTAVYYCARSLARTTAMDYWGQGSLVTVSSASTKGPSVFPLAPSSKSTSGGTAALGCLVKDYFPEPVTVSWNSGALTSGVHTFPAVLQSSGLYSLSSVVTVPSSSLGTQTYICNVNHKPSNTKVDKRVEPKSCDKTHTCPPCPAPELLGGPSVFLFPPKPKDTLMISRTPEVTCVVVDVSHEDPEVKFNWYVDGVEVHNAKTKPREEQYNSTYRVVSVLTVLHQDWLNGKEYKCKVSNKALPAPIEKTISKAKGQPREPQVYTLPPSRKEMTKNQVSLTCLVKGFYPSDIAVEWESNGQPENNYDTTPPVLKSDGSFFLYSDLTVDKSRWQQGNVFSCSVMHEALHNHYTQKSLSLSP
chain 2: not shown
For the protein B4, the heterodimer formation ratio (%) in data set [1] turned out to be 51%; in data set [2], 56%; in data set [3], 0%; in data set [4] it was 0%; in data set [5], 0%; in data set [6], 0%. Moreover, the heterodimer formation ratio (%) in data set [7] worked out at 0%; in data set [8], 0%; in data set [9] it was 53%; in [10] it was 0%; in data set [11], 0%.
